Experimental data reported in patent US10287317B2, “Proprotein convertase subtilisin kexin type 9 (PCSK9) allosteric binding ligands to modulate serum low density lipoprotein (LDL) levels” (SRX Cardio, LLC, priority 2013, dated 2019).
*1 amine or outer side, *2 acyl side, *3 side chain or, on linkers, in order; H or OH if unused. Where a SMILES comes first, the peptide text is derived from it. Where no end group is shown, it is not given here. [ ]: non-standard residue; d: D form. The star is where a group is joined. Asp(NHCH2Ph) = Asp side-chain benzylamide, O=C(C[C@H](N[*:1])C(=O)[*:2])NCc1ccccc1; Phe(3-CH2NH2) = O=C([C@H](Cc1cccc(CN[*:3])c1)N[*:1])[*:2]; d(pS) = N[C@H](COP(=O)(O)O)C(=O)O; hCha = N[C@@H](CCC1CCCCC1)C(=O)O; hPhe = N[C@@H](CCc1ccccc1)C(=O)O; pS = N[C@@H](COP(=O)(O)O)C(=O)O; Bn = c1ccc(C*)cc1; βAla = NCCC(=O)O

How the values were obtained:
PCSK9-WT protein [1] = molecular target: T1, PCSK9-WT protein (Homo sapiens, UniProt Q8NBP7); test: FACS analysis of cell surface LDLR in HuH7 cells with PCSK9-WT; type: cell-based; conditions: FACS, HuH7 cells; for inhibition at 100 µM: Huh-7, peptide at 100 uM, read-out: Cell Activity of Exemplified Peptides (inhibition); for modulation of LDLR cell surface level: exogenous WT PCSK9 plus peptide (FIG. 1, 100 μM)
T1 construct: V5
Description: HuH7 cells were incubated for 18 h in the absence (Cnt) or presence of 0.75 μg/ml PCSK9-WT protein alone (WT) or mixed with 100 μM of various SRX peptides. The level of LDLR at the cell surface was measured by FACS using anti human LDLR Ab and a suitable secondary Ab labeled with Alexa 647. Cell surface LDLR is reported relative to Cnt. % inhibition of activity was calculated as [SRX−WT]/[Cnt−WT]×100%.
See, FIG. 1. In that experiment, the LDLR levels of a hepatocyte culture model (HuH7 cells) were measured by fluorescence activated cell sorting (FACS) in accordance with Example III. Cell surface LDLR is reported as a percentage of Basal levels of LDLR, indicated by the Cnt_Amm.Bic, Cnt_Ac.Acid, and Cnt bars in the top graph. See, FIG. 1 (top panel). LDLR levels in the presence of exogenous PCSK9 is indicated as WT_Amm.Bic, WT-Ac.Acid, and WT, and Exogenous PCSK9 in combination with a tested peptide is indicated as SRX##. The measured LDLR levels are reported as % versus basal controls (Cnt) of the respective group. […] This was further shown a percent inhibition (% inhibition was calculated as [SRX−WT]/[Cnt−WT]×100%) where positive modulation (increase) of LDLR level is reported as positive % inhibition, and negative modulation (decrease) of LDLR level is reported as negative % inhibition. See, FIG. 1 (bottom panel).
Benjannet et al., “Effects of the prosegment and pH on the activity of PCSK9: evidence for additional processing events” J Biol Chem. 285(52): 40965-40978 (2010). The cells were then washed 3× with solution A (calcium/magnesium-free Dulbecco's PBS (Invitrogen) containing 0.5% bovine serum albumin (Sigma) and 1 g/liter glucose)). The cells were then incubated for 10 min at room temperature with 1× Versene solution (Invitrogen) followed by the addition of 5 ml of solution A. The cells were then incubated for 40 min in solution A containing a human LDLR mAb-C7 (1:100; Santa Cruz Biotechnology). Following washes, the cells were then incubated for 20 min in solution A containing a secondary antibody (Alexa Fluor 647 donkey anti-mouse antibody; 1:250; Molecular Probes).
Following suspension in PBS containing 0.2% of propidium iodide, the cells were analyzed by FACS for both propidium iodide (dead cells) and LDLR in live cells with Alexa Fluor 647 using the FACS BD LSR (BD Biosciences).

PCSK9-D374Y protein = PCSK9-D374Y protein (Homo sapiens, UniProt Q8NBP7, D374Y); test: Cellular diI-LDL uptake in HuH7 cells with PCSK9-D374Y; type: cell-based; conditions: HuH7, 0.5 μg/ml PCSK9-D374Y, 100 uM peptide (FIG. 3)
Description: (§1) HuH7 cells were incubated in a 96-well plate for a total of 20 h in the absence (Cnt) or presence of 0.5 μg/ml PCSK9-D374Y protein alone (DY) or mixed with 100 uM of various SRX peptides. After 16 h, dil-LDL (5 ug/ml) was added to the incubation mixtures. After 4 h, fluorescence was measured (Ex: 520 nm/Em: 575 nm; cutoff: 550 nm). Dil-LDL uptake is calculated as RFU corrected for the number of cells.
as §1, with “PCSK9 GOF-D374Y” for “PCSK9-D374Y”, “increasing concentrations” for “100 uM”
(§2) LDL internalization was measured by uptake of a fluorescently tagged LDL molecule (diI-LDL) in the absence of exogenous PCSK9 (Cnt), in the presence of exogenous PCSK9 (normal PCSK9=WT, D374Y mutant PCSK9=DY), or in the presence of PCSK9 and a tested peptide (indicated as SRX##, or SRX if a single peptide results is shown in a graph).
(§3) Cells, such as HepG2, HuH7, FL83B or a cell line transfected with a short-hairpin PCSK9 knockdown sequence such as HepG2/shPCSK9, HuH7/shPCSK9, FL83B/shPCSK9, were seeded at 2×10^4 cells/well in a 96-well plate and cultured at 37 degC in RPMI+10% FBS. After approximately 24 hours, the cell media was aspirated off and replaced with RPMI+3-5 mg/mL LPDS (Lipoprotein Deficient Serum, Millipore) media for further experimentation. Benjannet et al., “Effects of the prosegment and pH on the activity of PCSK9: evidence for additional processing events” J Biol Chem. 285(52): 40965-40978 (2010).
(§4) Peptide activity was assessed by culturing cells with: i) no SRX peptide/PCSK9 protein complex (control, Cnt); ii) PCSK9 protein; and iii) SRX peptide/PCSK9 complex. Various permutations of these experimental conditions were also used, including: i) the addition of wild type PCSK9 (WT); ii) a mutant PCSK9 (e.g., D374Y mutant PCSK9, DY); iii) various SRX peptides and/or PCSK9 at the same concentration and/or combinations; iv) various SRX peptides and/or PCSK9 at different concentrations and/or combinations; v) the use of different cells, as mentioned above, with or without a transfected short-hairpin sequence; vi) a pre-incubation of the PCSK9 and SRX peptide (e.g., 1, hour, 2 hours, 3 hours, 4 hours etc.); vii) various temperatures including, but not limited to, body temperature (e.g., 37° C.), supraphysiologic temperature (e.g., 39° C.); and viii) with/without agitation (e.g., shaker or gentle periodic vortexing).
(§5) Cells were cultured using one of the combinations of conditions described in the preceding paragraph for 16 hours. After 16 hours, a quantity of diI-LDL (Low density lipoprotein coupled with 1,1′-dioctadecyl-3,3,3′,3′-tetramethylindocarbocyanine perchlorate) needed to bring the media concentration to 5 ug/mL of diI-LDL was added to the culture well and cells continued to be cultured under these new conditions for 4 additional hours. At the end of the 4-hour incubation period (20 total hours of cell culture), the cellular uptake was halted with the addition of 4% formaldehyde in 10 uM Hoechst 33342 in a solvent such as deionized autoclaved water or PBS, and specimens were incubated at 20° C. for 20 minutes. Cell specimens were rinsed twice with PBS and then fluorescence measured with excitation at 360 nm and emission detected at 460 nm to measure DNA content. Cell specimens were then be incubated with a 0.1% SDS in a 0.1 N NaOH solution while being shaken for 10 minutes. Fluorescence of the diI-LDL in the specimens were quantified using excitation at 530 nm and resulting emission at 580 nm.
Fluorescence measurements of diI-LDLR were normalized to estimated cell numbers, determined from the Hoechst fluorescence. […]

PCSK9-WT protein [2] = molecular target: T1, PCSK9-WT protein; test: Cellular diI-LDL uptake in HuH7 cells with PCSK9-WT; type: cell-based; conditions: HuH7, 1.0 μg/ml PCSK9-WT, 100 uM peptide (FIG. 2)
Description: as §1, with “1.0” for “0.5”, “PCSK9-WT” for “PCSK9-D374Y”, “(WT)” for “(DY)”
as §2, §3, §4, §5
Fluorescence measurements of diI-LDLR were normalized to estimated cell numbers, determined from the Hoechst fluorescence. Data was analyzed for the different experimental conditions and reported as percentage relative fluorescence units (RFU) of the Cnt specimen. Percent inhibition was calculated as the difference in RFU of a peptide exposed specimen to the RFU of PCSK9-no peptide, divided by the RFU difference in PCSK9-no peptide to RFU of Cnt specimen, also expressed as [(SRX:RFU)−(PCSK9-no peptide:RFU)]/[(PCSK9-no peptide:RFU)−(Cnt:RFU)]×100.

[3] = molecular target: PCSK9-WT protein (human proprotein convertase subtilisin/kexin type 9) (human, UniProt Q8NBP7 31-692, limits assumed); test: cell-based or functional assay
PCSK9-WT protein (human proprotein convertase subtilisin/kexin type 9), sequence (Q8NBP7 31-692 limits assumed): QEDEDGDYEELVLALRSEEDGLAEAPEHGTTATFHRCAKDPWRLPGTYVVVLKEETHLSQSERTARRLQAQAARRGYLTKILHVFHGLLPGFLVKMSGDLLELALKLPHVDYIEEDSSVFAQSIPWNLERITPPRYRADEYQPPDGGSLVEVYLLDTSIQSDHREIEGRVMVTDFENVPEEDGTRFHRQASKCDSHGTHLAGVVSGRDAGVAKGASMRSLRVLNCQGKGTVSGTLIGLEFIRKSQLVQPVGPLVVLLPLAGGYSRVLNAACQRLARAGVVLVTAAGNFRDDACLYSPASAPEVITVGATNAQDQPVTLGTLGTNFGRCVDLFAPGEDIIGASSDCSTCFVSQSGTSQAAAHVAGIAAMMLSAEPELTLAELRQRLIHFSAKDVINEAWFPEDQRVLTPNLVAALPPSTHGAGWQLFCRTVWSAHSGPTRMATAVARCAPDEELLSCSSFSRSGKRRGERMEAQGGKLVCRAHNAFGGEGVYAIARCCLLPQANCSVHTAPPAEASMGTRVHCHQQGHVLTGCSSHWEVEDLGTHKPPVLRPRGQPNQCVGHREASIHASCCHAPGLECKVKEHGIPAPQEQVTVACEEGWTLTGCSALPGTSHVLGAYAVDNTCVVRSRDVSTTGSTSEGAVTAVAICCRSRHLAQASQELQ

T1 sequence (Q8NBP7 153-692): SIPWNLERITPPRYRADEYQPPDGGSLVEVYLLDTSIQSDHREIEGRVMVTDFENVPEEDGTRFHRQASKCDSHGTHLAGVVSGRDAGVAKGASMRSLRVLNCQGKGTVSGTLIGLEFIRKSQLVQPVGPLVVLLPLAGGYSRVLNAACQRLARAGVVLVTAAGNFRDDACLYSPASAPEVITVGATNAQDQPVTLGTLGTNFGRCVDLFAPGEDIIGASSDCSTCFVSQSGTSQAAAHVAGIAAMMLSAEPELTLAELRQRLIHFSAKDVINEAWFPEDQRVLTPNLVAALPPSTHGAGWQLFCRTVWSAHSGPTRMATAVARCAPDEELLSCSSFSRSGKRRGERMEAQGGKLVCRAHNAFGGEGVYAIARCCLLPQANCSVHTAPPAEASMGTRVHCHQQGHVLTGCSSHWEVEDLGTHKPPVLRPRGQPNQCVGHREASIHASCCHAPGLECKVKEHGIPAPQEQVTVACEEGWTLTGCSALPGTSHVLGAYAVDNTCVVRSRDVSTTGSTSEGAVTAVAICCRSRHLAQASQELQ
PCSK9-D374Y protein, sequence (Q8NBP7 153-692 D374Y): as the sequence (Q8NBP7 153-692) above, with D222Y counted along it

`CC(C)C[C@H](NC(=O)[C@@H](N)[C@@H](C)O)C(=O)N[C@@H](CSCc1ccccc1)C(=O)N[C@H](C(=O)N[C@@H](Cc1c[nH]c2ccccc12)C(=O)N[C@@H](CO)C(=O)N[C@@H](CO)C(=O)N[C@@H](COP(=O)(O)O)C(=O)O)[C@@H](C)O` [Compound 3, Thr-Leu-Cys(CH2-Ph)-Thr-Trp-Ser-Ser-Ser(p)] (H-TLC(Bn)TWSS[pS]-OH) was tested, and the inhibition at 100 µM (PCSK9-WT protein [1]) was greater than 30%.

With `CC(=O)N[C@@H](Cc1ccc(O)cc1)C(=O)N[C@@H](Cc1c[nH]c2ccccc12)C(=O)NCC(=O)O` [Compound 14, Ac-Tyr-Trp-Gly] (Ac-Tyr-Trp-Gly-OH) the “modulation of LDLR cell surface level” value (PCSK9-WT protein [1]) was “negatively modulate (decrease)”, the inhibition at 100 µM (PCSK9-WT protein [1]) was less than -30% and the “LDL internalization (dil-LDL % uptake vs Cnt)” value (PCSK9-D374Y protein) was “negatively modulated (decreased)”.

For “Ac-Trp-Ala-Ser(p) (Ac-Trp-Ala-[pS]) [Compound 12]”, the “modulation of LDLR cell surface level” value (PCSK9-WT protein [1]) was “negatively modulate (decrease)”.

In the case of “Ile-Leu-Asp-Leu-Ser-Tyr (ILDLSY; not fully specified (C-terminus); printed as Ile-Leu-Asp-Leu-Ser-Tyr) [Compound 10]”, the “LDL internalization (dil-LDL % uptake vs Cnt)” value (PCSK9-WT protein [2]) is reported as “positively modulated (increased)”.

“Thr-Leu-Asp(NHCH2Ph)-Thr-Trp-Ser-Ser-Ser(p) (TL[Asp(NHCH2Ph)]TWSS[pS]) [Compound 4]” was tested, and the “LDL internalization (dil-LDL % uptake vs Cnt)” value (PCSK9-WT protein [2]) was “negatively modulated (decreased)”.

For “Thr-Leu-Gly(CH2CH2cyclohexyl)-Thr-Trp-Ser-Ser-Ser(p) (TL[hCha]TWSS[pS]) [Compound 5]”, the “modulation of LDLR cell surface level” value (PCSK9-WT protein [1]) was “positively modulate (increase)”.

With “Thr-Leu-Hph-Thr-Trp-Ser-Ser-Ser(p) (TL[hPhe]TWSS[pS]) [Compound 6]” the “LDL internalization (dil-LDL % uptake vs Cnt)” value (PCSK9-D374Y protein) was “positively modulated (increased)”.

With [βAla][Phe(3-CH2NH2)]V[d(pS)]FW [SRX56: β-Ala-Phe(3-CH2NH2)-Val-D-Ser(p)-Phe-Trp] the “Cell Activity of Exemplified Peptides (FACS of cell surface LDLR, HuH7/shPCSK9 cells)” value [3] was > 30 % inhibition above control at 100 uM.

With VYVRFW (not fully specified; printed as Val-Tyr-Val-Arg-Phe-Trp) [SRX55: Val-Tyr-Val-Arg-Phe-Trp] the “Cell Activity of Exemplified Peptides (FACS of cell surface LDLR, HuH7/shPCSK9 cells)” value [3] was > 30 % inhibition above control at 100 uM.

With VLELYW [SRX65: Val-Leu-Glu-Leu-Tyr-Trp] the “Cell Activity of Exemplified Peptides (FACS of cell surface LDLR, HuH7/shPCSK9 cells)” value [3] was > 30 % inhibition above control at 100 uM.
